This is an account of results in patent publication US20170042979A1.

The test deals with soluble form of cation-independent mannose-6-phosphate receptor (lacking the membrane anchor sequence). Kind of test: SPR (Biacore), soluble CIMPR immobilised on dextran chip, analyte flowed at 20 µL/min, RU after 3 min less control cell.

Take “α-galactosidase conjugated to 10 kDa 4-arm dendrimer (star) hydrazide PEG (Hz4PEG), prepared with 10% w/v PEG (from UniProt P06280 32-429) (enzyme)”: the fold higher concentration needed for the same change in RU, against unmodified α-galactosidase is 10 fold.
